Here are results for two molecules from patent US10881612B2, “Cationic liposomes for cancer immunotherapy” (The Methodist Hospital, priority 2015, dated 2021).

Experiment [1] concerns 4T1 tumors. Put plainly: In vivo tumor cytotoxicity (H&E and TUNEL staining) after intratumoral injection. The following applies: 24 hours after intratumoral injection.
Protocol: (§1) The cytotoxicity of cationic liposomes to 4T1 breast cancer cells was evaluated by flow cytometry using propodium iodide (PI). Using a 24 well plate format, cells were treated with 4 μg control or MPL liposomes, or free MPL (250 ng) for 24 hours. Cells were released using trypsin and treated with PI according to manufacturer's protocol (Invitrogen). Samples were analyzed using a LSR II™ Flow Cytometer (BD Biosciences, Mountain View, Calif., USA) equipped with […] ™ software (2007). In vivo tumor cytotoxicity of cationic liposomes was evaluated in BALB/c mice bearing 200 mm^3 4T1 tumors 24 hours following intratumoral injection of liposomes (50 μL; 1 mg lipid). […]
(§2) The cytotoxicity of cationic liposomes to 4T1 breast cancer cells was evaluated by flow cytometry using propidium iodide (PI). […] Samples were analyzed using a LSR II® Flow Cytometer (BD Biosciences. Mountain View, Calif., USA) equipped with […] ™ software (2007). In vivo tumor cytotoxicity of cationic liposomes was evaluated in BALB/c mice bearing 200 mm^3 4T1 tumors 24 hr following intratumoral injection of liposomes (50 μL; 1 mg lipid). Excised tumors were embedded in paraffin, sectioned, and stained with hematoxylin/eosin, or analyzed for apoptosis using the DeadEnd® Fluorometric TUNEL System (Promega Corp., Madison. Wis., USA).
Experiment [2] relates to 4T1 orthotopic breast tumors. Put plainly: Therapeutic efficacy study, intratumoral injection. The class given is in vivo, BALB/c mice. The following applies: intratumoral injection once a week for two weeks. Here is the method: Breast cancer tumors were established in BALB/c mice by intramammary injection of 1×10^5 4T1-luciferase cells. When tumors reached a median size of 100-200 mm^3, mice were administered intratumoral injections as follows: PBS control, Free MPL (6.25 μg), control liposomes (50 μL; 1 mg lipid); MPL liposomes (50 μL), and IL-12 (5 μg) with/without MPL liposomes. Tumor growth was monitored by caliper measurements three times per week and by luciferase expression measured weekly using the Xenogen IVIS-200 System (Perkin Elmer Inc., Waltham, Mass., USA) following intra-peritoneal injection of 75 mg/kg RediJect D-Luciferin (Perkin Elmer Inc.), 24-26 days after initiation of tumor growth, mice were sacrificed, blood was collected by retro-orbital bleeding, and tumor and spleen were collected for immunohistochemical, weight, and size analysis. Dual tumors were grown in naïve mice using the same experimental conditions with intratumoral injection of particles limited to a single tumor.
Breast cancer tumors were established in BALB/c mice by intramammary injection of 1×10^5 4T1-luciferase cells. When tumors reached a median size of 100-200 mm^3, mice were administered intratumoral injections as follows: PBS control. Free MPL (6.25 μg), control liposomes (50 μL; 1 mg lipid): MPL liposomes (50 μL), and IL-12 (5 μg) with/without MPL liposomes. […]

For experiment [3], the system named is 4T1 breast cancer cells. Put plainly: Cytotoxicity of cationic liposomes by propidium iodide flow cytometry. In kind it is cell-based, mouse. The following applies: 4T1 cells, 4 μg/mL liposomes or free MPL (250 ng), 24 hours, n=3.
Protocol: as §1, §2
Experiment [4] relates to 4T1 tumor. As to the kind of experiment: V-sense 19F MRI / confocal tracking of macrophage infiltration into tumor. In kind it is in vivo, mice. The following applies: after IL-12 intratumoral injection, tumors extracted 24 hours post imaging. The text has this:
Macrophage accumulation has been documented to contribute to cancer progression through suppression of the immune response and promotion of tumor vascularization (Mielgo et al., 2013). V-sense is a perfluorocarbon emulsion that is taken up by monocytes and macrophages, allowing for in-vivo detection through ^19F MRI. Ahrens, et al. (2011) successfully quantified V-sense in inflamed tissues of the central nervous system in an ex-vivo model of allergic encephalomyelitis, which they correlated with immunohistochemistry to confirm co-localization of V-sense emulsion droplets and macrophages. Hitchens et al. (2011) detected perfluorocarbon-labeled macrophages in a model of cardiac allograft rejection, which was confirmed via immunohistochemistry and histology. V-sense was used to study the impact of IL-12 on macrophage infiltration into the tumor (FIG. 8). […] Confocal images in FIG. 8B show V-sense (red) uptake by Celltracker™ Green RAW cells.

Experiment [5] concerns serum cytokines. As to the kind of experiment: Multiplex bead ELISA of serum cytokines. The following applies: 5 hours after intratumoral injection. In kind it is in vivo, BALB/c mice. Here is the method: Serum cytokines were analyzed 5 hours after intratumoral injection of liposomes using a mouse cytokine magnetic 10-plex panel kit (Invitrogen, Carlsbad, Calif., USA) for the Luminex® platform. Following retro-orbital eye bleed, plasma was collected by centrifugation at 1500 g for 10 minutes at 4° C. and stored at −80° C. Plates were prepared using 25 μL/well of the antibody-bound head. After 2 washes, 50 μL serum and 50 μL assay diluent (or 100 μL standard) were added and plates were incubated at room temperature for 2 hours on an orbital shaker. After two washes, 100 μL of biotinylated detector antibody was added to the heads and they were incubated for an additional hour, followed by two more washes and the addition of 100 μL streptavidin-RPE for 30 minutes. After a final two washes, beads were suspended in 125 μL wash solution and inserted into the XY platform of a Luminex MAGPIX Instrument (EMD Millipore, Billerica, Mass. USA). The assay protocol was designed using xPONENT software and samples were run at 100 events/bead region.
Multiplex Bead ELISA. Serum cytokines were analyzed 5 hr after intratumoral injection of liposomes using a mouse cytokine magnetic 10-plex panel kit (Invitrogen, Carlsbad, Calif. USA) for the Luminex® platform. Following retro-orbital eye bleed, plasma was collected by centrifugation at 1500×g for 10 min at 4° C. and stored at −80° C. […]

The test system of experiment [6] is 4T1 tumor. As to the kind of experiment: Immune phenotyping of tumor immunocytes by flow. In kind it is in vivo, murine. The following applies: 24 hours after treatment, preliminary.
Experiment [7] deals with 4T1 tumors. As to the kind of experiment: Immunofluorescence of tumor sections (cellular phenotype of tumor microenvironment). In kind it is in vivo, BALB/c mice. How it is done:
Tissues were quick frozen in OCT (Tissue-Tek) and stored at −80° C. Tissue sections (10 μm) were fixed with ice-cold acetone for 15 minutes at −20° C. and washed three times with IX PBS using trays followed by blocking with 5% fetal bovine serum in PBS. Fluorescence-labeled antibodies [e-flour 615 CD8 (clone 53-6.7; 1:50), e-flour 570 Ki-67 (clone solA15: 1:100; eBioscience, San Diego, Calif., USA); FITC F4/80 (MCA497A488; 1:100), Alexa Fluor 647 CD204 (MCA1322; 1:100, AbD Serotec, Raleigh N.C., USA); and 33D1 (1:100, BD Biosciences, San Jose. Calif.: 1:500 secondary anti-rat IgG Alexa Fluor® 546; Invitrogen) and iNOS (6/iNOS/NOS; 1:100 BD Biosciences, San Jose, Calif., USA; 1:500 anti-rabbit IgG-TRITC, Jackson Immunoresearch Labs, Inc. West Grove, Pa., USA)] were incubated with tissues overnight at 4° C. in the presence of 5% FBS. Slides were then washed three times with PBS and mounted with ProLong® Gold AntiFade with DAPI (Invitrogen). Images were taken using an A1 Nikon confocal microscope and the percent positive cells were determined by manual counting of four arbitrary regions in random samples.
Tissues were quick frozen in OCT (Tissue-Tek) and stored at −80° C. Tissue sections (10 μm) were fixed with ice-cold acetone for 15 min at −20° C. and washed three times with 1×PBS using trays followed by blocking with 5% fetal bovine serum in PBS. Fluorescently-labeled antibodies [eFluor® 615 CD8 (clone 53-6.7; 1:50), eFluor® 570 Ki-67 (clone solA15; 1:100; eBioscience, San Diego, Calif. USA); FITC F4/80 (MCA497A488; 1:100), Alexa-Fluor® 647 CD204 (MCA1322; 1:100, AbD Serotec, Raleigh N.C. USA); and 33D1 (1:100, BD Biosciences, San Jose, Calif.; 1:500 secondary anti-rat IgG Alexa-Fluor® 546: Invitrogen) and iNOS (6/iNOS/NOS; 1:100 BD Biosciences. San Jose. Calif., USA; 1:500 anti-rabbit IgG-TRITC. Jackson ImmunoResearch Laboratories. Inc., West Grove, Pa. USA)] were incubated with tissues overnight at 4° C. in the presence of 5% FBS. Slides were then washed three times with PBS and mounted with ProLong® Gold AntiFade® with DAPI (Invitrogen). Images were obtained using a confocal microscope (A1 Nikon), and the percent-positive cells were determined by manual counting of four arbitrary regions in random samples.

As to monophosphoryl lipid A [free MPL], the “cell death in tumor (TUNEL staining)” value in experiment [1] is recorded as “Minimal cell death”. In addition, the “tumor growth (caliper measurements)” value in experiment [2] is “did not slow tumor growth”. Besides, the “cell death (propidium iodide uptake)” value in experiment [3] is reported as 16%.

B1: IL-12: Recombinant mouse IL-12 purchased from R&D Systems (protein, UniProt P43431 23-215; P43432 23-335, looked up)
Interleukin-12 subunit alpha: RVIPVSGPARCLSQSRNLLKTTDDMVKTAREKLKHYSCTAEDIDHEDITRDQTSTLKTCLPLELHKNESCLATRETSSTTRGSCLPPQKTSLMMTLCLGSIYEDLKMYQTEFQAINAALQNHNHQQIILDKGMLVAIDELMQSLNHNGETLRQKPPVGEADPYRVKMKLCILLHAFSTRVVTINRVMGYLSSA
Interleukin-12 subunit beta: MWELEKDVYVVEVDWTPDAPGETVNLTCDTPEEDDITWTSDQRHGVIGSGKTLTITVKEFLDAGQYTCHKGGETLSHSHLLLHKKENGIWSTEILKNFKNKTFLKCEAPNYSGRFTCSWLVQRNMDLKFNIKSSSSSPDSRAVTCGMASLSAEKVTLDQRDYEKYSVSCQEDVTCPTAEETLPIELALEARQQNKYENYSTSFFIRDIIKPDPPKNLQMKPLKNSQVEVSWEYPDSWSTPHSYFSLKFFVRIQRKKEKMKETEEGCNQKGAFLVEKTSTEVQCKGGNVCVQAQDRYYNSSCSKWACVPCRVRS
As for B1, the “V-sense signal distribution in tumor (macrophage infiltration)” value in experiment [4] is given as “strong penetration of V-sense signal into tumor tissue”. Also, in experiment [5], the “serum IFN-γ” value was “increase”. For the same molecule, in experiment [6], the “CD4+ T cells in the tumor” value is listed as “increases”, the “CD8+ T cells in the tumor” value is on record as “increases” and the “MDSC in the tumor” value is “decreases”. In experiment [7] (mouse, in vivo), the “CD8+ (cytolytic) T cells in the tumor (change)” value is recorded as “increased”, the “F4/80+ macrophages in the tumor (change)” value is “increased”, the “iNOS in tumors (change)” value was “enhancing production” and the “increase in iNOS (nitric oxide synthase) expression in the tumor above basal levels” value amounted to 3 fold. In addition, the “33D1+ dendritic cells in the tumor (change)” value in experiment [7] (tumor sections, immunofluorescence) was “increased”.
